Measured values reported in PMC8635308, “Neuropilin 1 regulates bone marrow vascular regeneration and hematopoietic reconstitution” (Nature Communications, 2021).

T1: Mouse NRP1 (Recombinant Mouse Neuropilin-1 Protein, CF) (mouse, UniProt P97333 22-856)
T1 construct: Neuropilin-1, mouse, recombinant soluble protein; also called murine NRP1; mouse NRP1 receptor; source: bought: R&D Systems
T1 sequence (looked up): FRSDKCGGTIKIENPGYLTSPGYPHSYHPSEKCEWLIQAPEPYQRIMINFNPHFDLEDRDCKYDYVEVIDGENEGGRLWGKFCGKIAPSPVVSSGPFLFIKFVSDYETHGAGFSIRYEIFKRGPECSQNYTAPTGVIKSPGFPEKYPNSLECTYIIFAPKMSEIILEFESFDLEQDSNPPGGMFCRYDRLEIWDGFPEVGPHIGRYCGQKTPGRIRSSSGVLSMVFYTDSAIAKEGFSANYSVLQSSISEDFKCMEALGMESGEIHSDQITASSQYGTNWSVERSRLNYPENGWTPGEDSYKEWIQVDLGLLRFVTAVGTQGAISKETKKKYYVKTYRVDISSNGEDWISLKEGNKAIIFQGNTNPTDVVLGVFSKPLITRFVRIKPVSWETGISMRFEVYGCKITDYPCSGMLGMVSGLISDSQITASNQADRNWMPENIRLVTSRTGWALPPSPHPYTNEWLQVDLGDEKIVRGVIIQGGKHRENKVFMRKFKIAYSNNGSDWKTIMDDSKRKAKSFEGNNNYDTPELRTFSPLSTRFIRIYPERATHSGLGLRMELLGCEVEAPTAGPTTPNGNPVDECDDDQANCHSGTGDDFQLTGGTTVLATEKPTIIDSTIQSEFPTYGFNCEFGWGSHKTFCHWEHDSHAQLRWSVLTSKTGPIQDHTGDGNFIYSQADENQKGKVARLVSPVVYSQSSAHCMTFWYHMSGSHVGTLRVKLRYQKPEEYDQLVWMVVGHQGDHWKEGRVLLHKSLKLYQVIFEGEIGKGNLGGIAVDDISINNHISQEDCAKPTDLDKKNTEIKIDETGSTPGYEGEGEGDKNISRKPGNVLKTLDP


Columns and labels:
[1] = target: Mouse NRP1 (Recombinant Mouse Neuropilin-1 Protein, CF) (mouse) (UniProt P97333); experiment: SPR; Pioneer SensiQ; mouse NRP1 immobilised on a Polycarboxylate High Capacity (PCH) chip in 10 mM sodium acetate pH 5.0 (2307 RU for mouse SEMA3A Fc, 1565 RU for human SEMA3A Fc); SEMA3A-Fc flowed over; running buffer 20 mM HEPES pH 7.5, 150 mM NaCl, 0.005% Tween-20; OneStep kinetics, single concentration (100 nM mouse or 50 nM human SEMA3A Fc), 75 ul/min
[2] = target: T1, Mouse NRP1 (Recombinant Mouse …); experiment: as above; conditions: both partners purified

Row | Kd [1] [nM] | Kd [2] [nM] | Molecule
1 | 1.8 |  | recombinant human full length SEMA3A Fc (huSEMA3A, Lys26-Val771) (from UniProt Q14563 26-771) (Fc fusion)
2 |  | ~4.4 | recombinant mouse SEMA3A Fc (muSEMA3A, Asn21-Lys747) (Fc fusion, UniProt O08665 21-747, looked up, Semaphorin 3A, mouse, Asn21-Lys747, truncated at the C-terminus (lacks the RNRR and RAPR stretches); also called Murine SEMA3A Fc; truncated murine SEMA3A; source: bought: R&D Systems) NYANGKNNVPRLKLSYKEMLESNNVITFNGLANSSSYHTFLLDEERSRLYVGAKDHIFSFNLVNIKDFQKIVWPVSYTRRDECKWAGKDILKECANFIKVLEAYNQTHLYACGTGAFHPICTYIEVGHHPEDNIFKLQDSHFENGRGKSPYDPKLLTASLLIDGELYSGTAADFMGRDFAIFRTLGHHHPIRTEQHDSRWLNDPRFISAHLIPESDNPEDDKVYFFFRENAIDGEHSGKATHARIGQICKNDFGGHRSLVNKWTTFLKARLICSVPGPNGIDTHFDELQDVFLMNSKDPKNPIVYGVFTTSSNIFKGSAVCMYSMSDVRRVFLGPYAHRDGPNYQWVPYQGRVPYPRPGTCPSKTFGGFDSTKDLPDDVITFARSHPAMYNPVFPINNRPIMIKTDVNYQFTQIVVDRVDAEDGQYDVMFIGTDVGTVLKVVSVPKETWHDLEEILLEEMTVFREPTTISAMELSTKQQQLYIGSTAGVAQLPLHRCDIYGKACAECCLARDPYCAWDGSSCSRYFPTAKRRTRRQDIRNGDPLTHCSDLQHHDNHHGPSLEERIIYGVENSSTFLECSPKSQRALVYWQFQRRNEDRKEEIRMGDHIIRTEQGLLLRSLQKKDSGNYLCHAVEHGFMQTLLKVTLEVIDTEHLEELLHKDDDGDGSKIKEMSSSMTPSQKVWYRDFMQLINHPNLNTMDEFCEQVWKRDRKQRRQRPGHSQGSSNK
